In this assay the target is T1, Aβ 1-42.
T1 construct: Obtained from Bachem, dissolved in 50% DMSO and used as the aggregated (insoluble) form; also called aggregated Aβ 1-42; beta-amyloid peptide 1-42
Nature of the assay: co-sedimentation with Aβ 1-42, SDS-PAGE densitometry.

T1 sequence (peptide, as listed by the source): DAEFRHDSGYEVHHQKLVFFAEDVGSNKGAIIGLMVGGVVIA
Protocol: Samples were centrifuged at 12,000×g in a micro centrifuge for 5 min. The supernatants were removed, and the pellets washed once with 40 mM Tris, pH 7.5, 10 mM MgCI₂, 1 mM DTT and centrifuged again. The pellets were resuspended in 100 μl buffer, electrophoresed on 12% SDS-PAGE next to the corresponding supernatant, and stained with Coomassie Blue R-250.

B1: N-terminal tau (M1-238S) (other)
chain: MAEPRQEFEVMEDHAGTYGLGDRKDQGGYTMHQDQEGDTDAGLKAEEAGIGDTPSLEDEAAGHVTQARMVSKSKDGTGSDDKKAKGADGKTKIATPRGAAPPGQKGQANATRIPAKTPPAPKTPPSSGEPPKSGDRSGYSSPGSPGTPGSRSRTPSLPTPPTREPKKVAVVRTPPKSPSS
notes: also called N-terminal tau domain (IM-238S)
Consider B1, for which the binding result is listed as “no binding”.

Source of the values: patent US20020164657A1 (published 2002).
